The record followed here is US20170015749A1 (NATIONAL RESEARCH COUNCIL OF CANADA, published 2017).

As a reminder, the Kd is the free concentration of one partner at which half of the binding sites on the other are occupied at equilibrium, for simple one-to-one binding. As usually defined, the koff is the rate constant with which the complex falls apart.

The labels stand for the following.
B1: IGF1R-3_H4 (VHH)
VHH: QVQLVESGGGLVQPGGSLRLSCAASEYPSNFYAMSWFRQAPGKEREFVAGVSRDGLTTLYADSVKGRFTMSRDNSKNTVYLQMNSLRAEDTAVYYCAIVITGVWNKVDVNSRSYHYWGQGTLVTVSS
notes: Humanized variant of IGF1R-3, monomeric VHH; not shown: C-terminal tag from expression vector pSJF2H (protein purified by IMAC)
B2: IGF1R-3_H5 (VHH)
VHH: EVQLVESGGGLVQPGGSLRLSCAASEYPSNFYAMSWFRQAPGKEREFVSGVSRDGLTTLYADSVKGRFTISRDNSKNTLYLQMNSLRAEDTAVYYCAIVITGVWNKVDVNSRSYHYWGQGTLVTVSS
notes: as for B1
B3: IGF1R-3_H2 (VHH)
VHH: QVQLVESGGGLVQPGGSLRLSCAASEYPSNFYAMSWVRQAPGKGLEWVAGVSRDGLTTLYADSVKGRFTMSRDNSKNTVYLQMNSLRAEDTAVYYCAIVITGVWNKVDVNSRSYHYWGQGTLVTVSS
notes: as for B1
B4: IGF1R-3_H1 (VHH)
VHH: EVQLVESGGGLVQPGGSLRLSCAASEYPSNFYAMSWVRQAPGKGLEWVSGVSRDGLTTLYADSVKGRFTISRDNSKNTLYLQMNSLRAEDTAVYYCAIVITGVWNKVDVNSRSYHYWGQGTLVTVSS
notes: as for B1
B5: IGF1R-3 VHH (VHH)
VHH: QVKLEESGGGLVQAGGSLRLSCVASEYPSNFYAMSWFRQAPGKEREFVAGVSRDGLTTLYADSVKGRFTMSRDNAKNTVDLQMNSVKAEDTAVYYCAIVITGVWNKVDVNSRSYHYWGQGTQVTVSS
notes: Llama VHH expressed in E. coli TG1 from pSJF2H and tested as monomer; also called anti-IGF1R VHH IGF1R-3; IGF1R VHH; not shown: C-terminal tag from expression vector pSJF2H (protein purified by IMAC)

One assay concerns the target T1, recombinant extracellular portion of human IGF1R (IGF1R^933-His) (human, UniProt P08069 31-933).
T1 construct: It contains a furin cleavage site (RKRR) between the alpha and beta subunits, so the secreted protein may be two disulphide-linked chains; Immobilized by amine coupling on a CM5 chip; also called recombinant human IGF1R; human IGF1R fragment; not shown: His tag from vector pCDN4/myc-His
Put plainly: SPR, Biacore 3000, human IGF1R immobilized on CM5, VHH as analyte, 1:1 model. On the procedure: (§1) Approximately 3000 Resonance Units (RU) of recombinant human IGF1R were immobilized on a Sensor chip CM5. Immobilization was carried out at a concentration of 10 μg/ml in 10 mM acetate at pH4.0 using the amine coupling kit supplied by the manufacturer. The remaining binding sites were blocked with 1 M ethanolamine pH 8.5. An ethanolamine blocked surface was used as a reference surface. For the binding studies, analyses were carried out at 25° C. in 10 mM HEPES, pH7.4 containing 150 mM NaCl, 3 mM EDTA and 0.005% surfactant P20 (Polyoxyethylenesorbitan; GE Healthcare). […] Surfaces were regenerated with 10 mM glycine pH 2.0 with a contact time of 24 seconds. Data were analyzed with BIAevaluation 4.1 software (GE Healthcare).
Regarding B1, the dissociation constant Kd stood at 1.4 nM and the off-rate (koff) stood at 0.00055 s⁻¹.
For B2, the Kd was 7.5 nM and the koff came to 0.0025 s⁻¹.
Consider B3, for which the Kd was 6.6 nM and the koff came out at 0.00072 s⁻¹.
The corresponding values for B4 are 47 nM and 0.0023 s⁻¹.
The corresponding values for B5 are 1.3 nM and 0.00013 s⁻¹.

The next assay deals with T2, recombinant human Insulin Receptor (R&D systems) (human, UniProt P06213-2 28-944, limits assumed).
T2 construct: extracellular domain; Immobilized on a CM5 chip at about 4000 RU; also called IR; recombinant extracellular portion of the human Insulin Receptor
T2 sequence (P06213 other isoform, or with tags, fused parts or gaps limits assumed): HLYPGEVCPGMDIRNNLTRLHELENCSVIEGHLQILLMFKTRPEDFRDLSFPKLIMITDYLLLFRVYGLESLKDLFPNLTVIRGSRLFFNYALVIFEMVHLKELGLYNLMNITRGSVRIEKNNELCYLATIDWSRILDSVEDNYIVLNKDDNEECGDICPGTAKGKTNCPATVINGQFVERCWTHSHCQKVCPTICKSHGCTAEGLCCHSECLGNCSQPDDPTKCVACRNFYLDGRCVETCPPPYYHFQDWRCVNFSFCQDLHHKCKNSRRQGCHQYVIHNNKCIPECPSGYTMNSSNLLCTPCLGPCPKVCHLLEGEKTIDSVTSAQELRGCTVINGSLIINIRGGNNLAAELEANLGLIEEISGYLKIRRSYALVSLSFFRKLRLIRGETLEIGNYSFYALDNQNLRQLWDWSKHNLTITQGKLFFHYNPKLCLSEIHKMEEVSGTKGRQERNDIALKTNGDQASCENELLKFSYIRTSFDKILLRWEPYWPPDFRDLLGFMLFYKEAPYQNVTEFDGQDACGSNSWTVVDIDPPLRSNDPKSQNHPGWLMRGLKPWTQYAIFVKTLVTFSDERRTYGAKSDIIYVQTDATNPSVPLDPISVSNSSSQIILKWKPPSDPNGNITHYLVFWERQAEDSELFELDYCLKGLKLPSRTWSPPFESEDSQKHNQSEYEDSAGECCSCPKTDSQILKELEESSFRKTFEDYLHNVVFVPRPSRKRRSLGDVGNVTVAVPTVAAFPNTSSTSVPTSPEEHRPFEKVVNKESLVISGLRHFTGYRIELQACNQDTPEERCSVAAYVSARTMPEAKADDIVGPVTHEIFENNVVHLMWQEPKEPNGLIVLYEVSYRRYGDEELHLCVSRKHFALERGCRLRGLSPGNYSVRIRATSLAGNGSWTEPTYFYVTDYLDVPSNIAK
In words: SPR, IGF1R-3 VHH (1 nM per text) injected over immobilised human Insulin Receptor surface (curve without asterisk). On the procedure:
as §1
A general note: In SPR one partner is held on a chip, and binding of the other changes the refractive index at the surface.
Take B5: the binding result was “no binding (tested: 1 nM)”.
